Results reported in paper PMC6398471, “The depolymerase activity of MCAK shows a graded response to Aurora B kinase phosphorylation through allosteric regulation” (Journal of Cell Science, 2019).

B1: full-length human MCAK (natural protein, UniProt Q99661 1-725, looked up)
chain: MAMDSSLQARLFPGLAIKIQRSNGLIHSANVRTVNLEKSCVSVEWAEGGATKGKEIDFDDVAAINPELLQLLPLHPKDNLPLQENVTIQKQKRRSVNSKIPAPKESLRSRSTRMSTVSELRITAQENDMEVELPAAANSRKQFSVPPAPTRPSCPAVAEIPLRMVSEEMEEQVHSIRGSSSANPVNSVRRKSCLVKEVEKMKNKREEKKAQNSEMRMKRAQEYDSSFPNWEFARMIKEFRATLECHPLTMTDPIEEHRICVCVRKRPLNKQELAKKEIDVISIPSKCLLLVHEPKLKVDLTKYLENQAFCFDFAFDETASNEVVYRFTARPLVQTIFEGGKATCFAYGQTGSGKTHTMGGDLSGKAQNASKGIYAMASRDVFLLKNQPCYRKLGLEVYVTFFEIYNGKLFDLLNKKAKLRVLEDGKQQVQVVGLQEHLVNSADDVIKMIDMGSACRTSGQTFANSNSSRSHACFQIILRAKGRMHGKFSLVDLAGNERGADTSSADRQTRMEGAEINKSLLALKECIRALGQNKAHTPFRESKLTQVLRDSFIGENSRTCMIATISPGISSCEYTLNTLRYADRVKELSPHSGPSGEQLIQMETEEMEACSNGALIPGNLSKEEEELSSQMSSFNEAMTQIRELEEKAMEELKEIIQQGPDWLELSEMTEQPDYDLETFVNKAESALAQQAKHFSALRDVIKALRLAMQLEEQASRQISSKKRPQ
notes: MCAK (Kif2C), human, full length; also called Kif2C; kinesin-13; source: Sf9 insect cells (pFastBac), purified
B2: MCAK-GFP (natural protein, human, UniProt Q99661 1-725, looked up)
chain: MAMDSSLQARLFPGLAIKIQRSNGLIHSANVRTVNLEKSCVSVEWAEGGATKGKEIDFDDVAAINPELLQLLPLHPKDNLPLQENVTIQKQKRRSVNSKIPAPKESLRSRSTRMSTVSELRITAQENDMEVELPAAANSRKQFSVPPAPTRPSCPAVAEIPLRMVSEEMEEQVHSIRGSSSANPVNSVRRKSCLVKEVEKMKNKREEKKAQNSEMRMKRAQEYDSSFPNWEFARMIKEFRATLECHPLTMTDPIEEHRICVCVRKRPLNKQELAKKEIDVISIPSKCLLLVHEPKLKVDLTKYLENQAFCFDFAFDETASNEVVYRFTARPLVQTIFEGGKATCFAYGQTGSGKTHTMGGDLSGKAQNASKGIYAMASRDVFLLKNQPCYRKLGLEVYVTFFEIYNGKLFDLLNKKAKLRVLEDGKQQVQVVGLQEHLVNSADDVIKMIDMGSACRTSGQTFANSNSSRSHACFQIILRAKGRMHGKFSLVDLAGNERGADTSSADRQTRMEGAEINKSLLALKECIRALGQNKAHTPFRESKLTQVLRDSFIGENSRTCMIATISPGISSCEYTLNTLRYADRVKELSPHSGPSGEQLIQMETEEMEACSNGALIPGNLSKEEEELSSQMSSFNEAMTQIRELEEKAMEELKEIIQQGPDWLELSEMTEQPDYDLETFVNKAESALAQQAKHFSALRDVIKALRLAMQLEEQASRQISSKKRPQ
notes: MCAK (Kif2C), human, full length; also called GFP-tagged MCAK; source: Sf9 insect cells (pFastBac), purified; not shown: GFP, C-terminal, kept
B3: Aurora B-phosphorylated MCAK-GFP (natural protein, human, UniProt Q99661 1-725, looked up)
chain: MAMDSSLQARLFPGLAIKIQRSNGLIHSANVRTVNLEKSCVSVEWAEGGATKGKEIDFDDVAAINPELLQLLPLHPKDNLPLQENVTIQKQKRRSVNSKIPAPKESLRSRSTRMSTVSELRITAQENDMEVELPAAANSRKQFSVPPAPTRPSCPAVAEIPLRMVSEEMEEQVHSIRGSSSANPVNSVRRKSCLVKEVEKMKNKREEKKAQNSEMRMKRAQEYDSSFPNWEFARMIKEFRATLECHPLTMTDPIEEHRICVCVRKRPLNKQELAKKEIDVISIPSKCLLLVHEPKLKVDLTKYLENQAFCFDFAFDETASNEVVYRFTARPLVQTIFEGGKATCFAYGQTGSGKTHTMGGDLSGKAQNASKGIYAMASRDVFLLKNQPCYRKLGLEVYVTFFEIYNGKLFDLLNKKAKLRVLEDGKQQVQVVGLQEHLVNSADDVIKMIDMGSACRTSGQTFANSNSSRSHACFQIILRAKGRMHGKFSLVDLAGNERGADTSSADRQTRMEGAEINKSLLALKECIRALGQNKAHTPFRESKLTQVLRDSFIGENSRTCMIATISPGISSCEYTLNTLRYADRVKELSPHSGPSGEQLIQMETEEMEACSNGALIPGNLSKEEEELSSQMSSFNEAMTQIRELEEKAMEELKEIIQQGPDWLELSEMTEQPDYDLETFVNKAESALAQQAKHFSALRDVIKALRLAMQLEEQASRQISSKKRPQ
modifications: phosphorylated in vitro with Aurora B kinase; the sites modified in this sample are not stated
notes: MCAK (Kif2C), human, full length; Phosphorylation protocol is in Welburn et al., 2010; source: Sf9 insect cells (pFastBac), purified, phosphorylated in vitro with Aurora B kinase; not shown: GFP, C-terminal, kept
B4: MCAKS6E-GFP (natural protein, human, UniProt Q99661 1-725, looked up)
chain: MAMDSSLQARLFPGLAIKIQRSNGLIHSANVRTVNLEKSCVSVEWAEGGATKGKEIDFDDVAAINPELLQLLPLHPKDNLPLQENVTIQKQKRREVNSKIPAPKESLRERETRMETVSELRITAQENDMEVELPAAANSRKQFSVPPAPTRPSCPAVAEIPLRMVEEEMEEQVHSIRGSSSANPVNSVRRKECLVKEVEKMKNKREEKKAQNSEMRMKRAQEYDSSFPNWEFARMIKEFRATLECHPLTMTDPIEEHRICVCVRKRPLNKQELAKKEIDVISIPSKCLLLVHEPKLKVDLTKYLENQAFCFDFAFDETASNEVVYRFTARPLVQTIFEGGKATCFAYGQTGSGKTHTMGGDLSGKAQNASKGIYAMASRDVFLLKNQPCYRKLGLEVYVTFFEIYNGKLFDLLNKKAKLRVLEDGKQQVQVVGLQEHLVNSADDVIKMIDMGSACRTSGQTFANSNSSRSHACFQIILRAKGRMHGKFSLVDLAGNERGADTSSADRQTRMEGAEINKSLLALKECIRALGQNKAHTPFRESKLTQVLRDSFIGENSRTCMIATISPGISSCEYTLNTLRYADRVKELSPHSGPSGEQLIQMETEEMEACSNGALIPGNLSKEEEELSSQMSSFNEAMTQIRELEEKAMEELKEIIQQGPDWLELSEMTEQPDYDLETFVNKAESALAQQAKHFSALRDVIKALRLAMQLEEQASRQISSKKRPQ
notes: MCAK (Kif2C), human, full length, Aurora B phosphomimetic for six serines in the N-terminus and neck; Site-directed mutagenesis of MCAK-GFP; source: Sf9 insect cells (pFastBac), purified; not shown: GFP, C-terminal, kept
B5: MCAKS2E-GFP (natural protein, human, UniProt Q99661 1-725, looked up)
chain: MAMDSSLQARLFPGLAIKIQRSNGLIHSANVRTVNLEKSCVSVEWAEGGATKGKEIDFDDVAAINPELLQLLPLHPKDNLPLQENVTIQKQKRRSVNSKIPAPKESLRSRSTRMSTVSELRITAQENDMEVELPAAANSRKQFSVPPAPTRPSCPAVAEIPLRMVEEEMEEQVHSIRGSSSANPVNSVRRKECLVKEVEKMKNKREEKKAQNSEMRMKRAQEYDSSFPNWEFARMIKEFRATLECHPLTMTDPIEEHRICVCVRKRPLNKQELAKKEIDVISIPSKCLLLVHEPKLKVDLTKYLENQAFCFDFAFDETASNEVVYRFTARPLVQTIFEGGKATCFAYGQTGSGKTHTMGGDLSGKAQNASKGIYAMASRDVFLLKNQPCYRKLGLEVYVTFFEIYNGKLFDLLNKKAKLRVLEDGKQQVQVVGLQEHLVNSADDVIKMIDMGSACRTSGQTFANSNSSRSHACFQIILRAKGRMHGKFSLVDLAGNERGADTSSADRQTRMEGAEINKSLLALKECIRALGQNKAHTPFRESKLTQVLRDSFIGENSRTCMIATISPGISSCEYTLNTLRYADRVKELSPHSGPSGEQLIQMETEEMEACSNGALIPGNLSKEEEELSSQMSSFNEAMTQIRELEEKAMEELKEIIQQGPDWLELSEMTEQPDYDLETFVNKAESALAQQAKHFSALRDVIKALRLAMQLEEQASRQISSKKRPQ
notes: MCAK (Kif2C), human, full length, phosphomimetic in the neck region (Ser192 and Ser166 replaced by glutamate); Site-directed mutagenesis of MCAK-GFP; source: Sf9 insect cells (pFastBac), purified; not shown: GFP, C-terminal, kept

Assays:
[1] = molecular target: Taxol-stabilized microtubules, digoxigenin- and HyLite-647-labeled, P02550;P02554; assay: single-molecule imaging of MCAK-GFP on microtubules; settings: 32 mM K-PIPES, parent: 6.14e-6
[2] = molecular target: the molecule itself; assay: cross-linking; BS3 on MCAK alone: 10 µg MCAK with 20 µg BS3 in 10 mM HEPES pH 7, 200 mM potassium acetate pH 7.6, on ice 1 h; SDS-PAGE, band cut out, mass spectrometry
[3] = molecular target: Taxol-stabilized microtubules, digoxigenin- and HyLite-647-labeled (UniProt P02550 1-451; P02554 1-445, 8% of the tubulin digoxigenin-labeled, 3.5% labeled with HyLite-647; chain and residues not stated | 8% of the tubulin digoxigenin-labeled, 3.5% labeled with HyLite-647; chain and residues not stated); assay: single-molecule TIRF microscopy (residence times); microtubules held on the coverslip by anti-DIG antibody; MCAK at 5-100 pM in MRB80 (80 mM K-PIPES pH 6.9, 1 mM EGTA, 4 mM MgCl2) with 1 mM ATP, κ-casein, 40 µM taxol; 23°C; off-rate = 1/τ of a single exponential fit; settings: both partners purified
Chain of Taxol-stabilized microtubules, digoxigenin- and HyLite-647-labeled (P02550 whole entry, chain 1 of 2): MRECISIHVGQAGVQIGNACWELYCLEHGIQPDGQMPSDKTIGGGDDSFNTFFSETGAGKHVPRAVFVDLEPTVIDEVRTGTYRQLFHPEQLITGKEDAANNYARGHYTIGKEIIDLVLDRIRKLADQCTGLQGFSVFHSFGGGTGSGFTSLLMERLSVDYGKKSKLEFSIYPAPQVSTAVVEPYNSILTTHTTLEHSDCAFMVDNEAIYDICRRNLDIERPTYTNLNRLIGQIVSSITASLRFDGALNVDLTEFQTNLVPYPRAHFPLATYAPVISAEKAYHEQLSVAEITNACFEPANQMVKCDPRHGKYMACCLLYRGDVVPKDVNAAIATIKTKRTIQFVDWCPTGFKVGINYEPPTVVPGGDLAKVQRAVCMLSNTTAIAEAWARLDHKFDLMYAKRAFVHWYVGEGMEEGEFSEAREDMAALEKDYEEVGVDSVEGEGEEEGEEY
Chain of Taxol-stabilized microtubules, digoxigenin- and HyLite-647-labeled (P02554 whole entry, chain 2 of 2): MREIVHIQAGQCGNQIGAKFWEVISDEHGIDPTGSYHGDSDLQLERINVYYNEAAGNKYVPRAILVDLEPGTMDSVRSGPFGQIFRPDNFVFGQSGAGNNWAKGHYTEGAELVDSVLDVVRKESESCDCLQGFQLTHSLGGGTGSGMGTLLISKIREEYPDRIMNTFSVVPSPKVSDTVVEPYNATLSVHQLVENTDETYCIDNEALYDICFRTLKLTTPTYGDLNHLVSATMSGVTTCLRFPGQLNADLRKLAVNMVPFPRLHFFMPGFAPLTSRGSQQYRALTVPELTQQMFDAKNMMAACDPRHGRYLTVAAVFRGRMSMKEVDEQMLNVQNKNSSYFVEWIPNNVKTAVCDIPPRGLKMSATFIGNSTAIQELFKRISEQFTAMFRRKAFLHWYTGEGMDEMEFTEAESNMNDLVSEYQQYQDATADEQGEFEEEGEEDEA

Molecule	koff [3] [s⁻¹]	further results
MCAK-GFP (from UniProt Q99661) S95E; S109E; S111E; S115E; S166E; S192E		kon ([1]; n = 439): 11000 M⁻¹ s⁻¹
MCAK-GFP (from UniProt Q99661) S166E; S192E		kon ([1]; n = 280): 6720 M⁻¹ s⁻¹
B1		stoichiometry N [2]: 2
B2	1.6	
B3	23.4	
B4	25.8	
B5	3.2	
